Measurements: US20090253622A1, “USE OF TLR3 AGONISTS FOR THE TREATMENT OF NEURODEGENERATIVE DISORDERS” (Nederlandse Organisatie voor toegepast - …, priority 2006, published 2009)

System: human astrocytes
Test: cDNA bank screening: COS-7 transfectant supernatants on human astrocytes, CXCL8 release
Assay type: cell-based
Details: COS-7 supernatant, 48 h
Method: Cos-7 cells (25,000 cells per well in 96-well plates) were transfected for 5 h with 768 pools of cDNA derived from human brain tumours (5 pooled tumours including meningioma, oligodendroglioma, astrocytoma grades II and IV, and medulloblastoma; NCI CGAP Brn35; Invitrogen) using lipofectamine, after which cells were thoroughly washed. Transfection with green-fluorescent protein-encoding cDNA was used as an internal control for transfection efficiencies. After continued culture of the transfected cells for 48 h, 75 μL of each culture supernatant was harvested and added to cultured human astrocytes seeded at 1,000 cells per well in 75 μL. After 48 h of culture, supernatants were harvested and evaluated for CXCL8 release using ELISA. […]
A cDNA bank derived from 5 pooled tumours including meningioma, oligodendroglioma, astrocytoma grades II and IV and medulloblastoma was used as a source of sequences potentially encoding an endogenous protein agonist for TLR3. The cDNAs were cloned into plasmid vectors promoting expression and secretion of the cDNA-encoded product by mammalian cells, and these plasmids were transfected into COS-7 cells and evaluated in a two-step approach. […] To monitor such an astrocyte response in this first stage, secretion of CXCL8 was evaluated since this is a sensitive marker for TLR3 activation in these and other cells (cf. FIGS. 9 and 10). […]

B1: clone F5: cDNA clone product with amino acid sequence identical to residues 44-149 of human stathmin (protein)
chain: DFSLEEIQKKLEAAEERRKSHEAEVLKQLAEKREHEKEVLQKAIEENNNFSKMAEEKITHKMEANKENREAQMAAKLERLREKDKHIEEVRKNKESKDPADETEAD
In the case of B1, the “CXCL8 secretion in astrocytes triggered by cDNA-encoded product” value is reported as “marked CXCL8 secretion”.
